# B1: Xyl7: endo-1,4-β-xylanase of 505 amino acids, SEQ ID NO:2, from termite gut metagenome, expressed in E. coli with His tag (protein)
# chain: MKKLIALSFIAAFFAPLFAQGPTWTTSTIQAYNGYDYELWNQNNAGTVSMKLTGDNGSGASAVGGTFTATWSNTQNVLFRSGKKWGSSSNQNHTQIGNMSINFAATWSSTDNVKMLGVYGWAYFTSANVPTKQENGTNASFSNQIEYYIIQDRGSYNPASGGTNAKKYGSATIDGIAYDFYVCDRINQPMLTGNGNFKQFFSVPQSASAHRTSGTISVSQHFNKWHELGMKMDGPLYEVAMKVESYTGSGSSNGSATVTKNLLTIGGTTPTPSSNSGGTTSSSSRASSSSRASSSSNAAVQATTCKTPLITYPTSTVPSDPYTACFKYTDDKCYVCKVENEGEFEGNMNTCGSGWVWDGTQIDNNLRDGYWYQEVPCPAGSSSSRSSSSSVAVSSSSRSSSSSVAASSSSRSSSSSASVSSSSEETPIRVLHTIPSKFRVRSLNNGALQIESNADVVLYLYDTKGKMAQKIEAPTGSSIVKLSVPAGIYIVRNVQTKEKLRVMVR
# modifications: His tag; Intestinal tract metagenome of termite
# Tests used:
# Format in all cases: biochemical
# [1] = Detection on temperature tolerance
# Protocol: (§1) In a 100 μl reaction system, birch xylan was added to a final concentration of 1% (w/w), and Na2HPO4/NaH2PO4 buffer (pH7.0) was added to a final concentration of 100 mM. A suitable amount of enzyme solution diluted by the abovementioned buffer was added to the reaction system for reaction at 50[…] for 10 minutes. 100 μl DNS were added to stop the reaction. For the control, 100 μl DNS were firstly added to the above reaction system before adding the enzyme solution. The reaction mixtures were subjected to a boiled water bath for 5 minutes to develop color. Absorbance value at 540 nm was detected by a microplate reader. After subtracting the absorbance value of the control from that of the sample, the enzymatic activity unit (U) was calculated based on the standard curve.
# The Xyl7 enzyme solution was stored in a buffer having an optimum pH 7.0 at different temperatures (55° C., 50° C., 45° C.) or at 50° C. with addition of 70 mM mercaptoethan for different times (15 min, 30 min, 45 min, 60 min, 75 min). Enzymatic activity was tested according to the above standard enzymatic activity detection steps (enzymatic activity was tested after reacting at pH7.0, 50° C. for 10 minutes). The enzyme solution which was not subjected to heat treatment was used as a control. Its specific activity tested under pH 7.0, 50° C. was used as a reference value and its relative activity was defined as 100%. The relative activity of the treatment group was a ratio between the relative activity value obtained after storing at different temperatures for different times (treatment conditions) and the reference value. […] After storing at these temperatures for 45 min, the enzymatic activity decreased to be less than 50% of the maximum activity.
# [2] = Standard enzymatic activity detection (DNS method) on birch xylan; conditions: substrate 2% (w/w), pH7.0, 50, 10 minutes
# Protocol: Enzymatic activity of the endo-1,4-β-xylanase was tested by a DNS method as follows:
# 10 g NaOH were weighed and dissolved in about 400 ml ddH2O. 10 g dinitrosalicylic acid, 2 g phenol, 0.5 g anhydrous sodium sulfite and 200 g potassium sodium tartrate tetrahydrate were weighed and dissolved in about 300 ml ddH2O. The two solutions were mixed, diluted to 1 liter and preserved in dark.
# 100 μl DNS were added into each of the above standard samples. The mixtures were subjected to boiled water bath for 5 minutes for developing color. Absorbance value at 540 nm was detected by a microplate reader. Standard sample 1 was a blank control. The absorbance value of the blank control was subtracted from that of each sample and then the standard curve was plotted.
# as §1
# Definition of enzymatic activity unit (U): 1U refers to the amount of enzyme required for catalytically hydrolyzing xylan to produce 1 μmol xylose.
# Definition of specific activity unit: enzymatic activity of 1 mg protein (U/mg).
# Various substrates with a final concentration of 2% (w/w) were treated by a suitable amount of enzymes at pH7.0 and 50[…] for 10 minutes. Enzymatic activity was tested according to the above standard enzymatic activity detection steps. […] No detectable enzymatic activity was found for the other test substrates. […]
# [3] = Residual activity under pulp bleaching conditions (alkaline pH, high temperature); conditions: 50-70, pH8-9, one to two hours
# Protocol: as §1, with “curve. […]” for “curve.”
# [4] = Detection on pH tolerance; conditions: pH 6.5, 7.0 or 7.5, 50° C., 45 min; % of the highest activity
# Protocol: as §1
# The enzyme solution was kept in buffers of different pH values (6.5, 7.0 and 7.5) or at pH 7.0 with addition of 70 mM mercaptoethanol at 50° C. for different times (15 min, 30 min, 45 min, 60 min, 75 min). Enzymatic activity was tested according to the above standard enzymatic activity detection steps (enzymatic activity was tested after reacting at pH7.0, 50° C. for 10 minutes). The specific activity value of Xyl7 obtained after storing at pH7.0, 50° C. for 0 minute and reacting at 50° C. for 10 minutes was used as a reference value, and its relative activity was defined as 100%. […]
# [5] = pH 7.0, % of the maximum activity
molecule,measurement,setting,value
B1,effect of 70 mM mercaptoethan on loss of activity during storage,"[1]; pH 7.0, 50° C., 70 mM mercaptoethan added",decrease rate of the enzymatic activity was further reduced
same,activity after storing at 50° C. and 45° C. for 45 min,[1]; [5],less than 50%
same,activity after storing at 55° C. for 15 min,[1]; [5],less than 50%
same,Specific Activity on birch xylan,[2],4700 ± 57 U/mg
same,residual enzymatic activity at high temperature in alkaline environment,[3],retain a sufficiently high enzymatic activity
same,retained activity after storing in buffer,[4],≥ 50%
